± gives the standard deviation of the averaged measurements.
B1: library; a variant is named by its letters at N, in order (parent)
chain: GCUGUCACCGGUGCUUGGUACGUUAUAUUCAGCCGGUCUGAUGAGUCUNNNNNNAGACGAAACAGC

Experiments:
(6R,S)-folinic acid [1] = variants of: B1; test: normalized RNA/DNA level without ligand (relative to sTRSVctl = 100) (log10 (% of sTRSVctl)); HEK293T overexpressing SLC46A1; higher = less ribozyme self-cleavage, higher mRNA level; settings: without (6R,S)-folinic acid; ligand present: no
Outline: (§1)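 HEK293T cells were transfected with library plasmids carrying ribozyme switches linked to an mCherry reporter, or an eGFP reporter in some ligand experiments, at 4 µg per well of a 6-well plate, with any ligand added 1 h beforehand. After 72 h, total RNA was extracted with EDTA, reverse-transcribed, amplified, barcoded and sequenced. RNA level was defined as RNA reads over DNA reads, normalized to a spiked-in non-cleaving sequence or to the top-ranked sequences. That value was multiplied by 100 and converted to log10, the top set was 25 sequences, and only sequences with ≥100 DNA reads were retained.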

(6R,S)-folinic acid [2] = variants of: B1; test: normalized RNA/DNA level with ligand (relative to sTRSVctl = 100) (log10 (% of sTRSVctl)); HEK293T overexpressing SLC46A1; ligand concentration (+) RNA-Seq: 6 mM; higher = less ribozyme self-cleavage, higher mRNA level; settings: with (6R,S)-folinic acid; ligand present: yes
Outline: as §1

Variant | normalized RNA/DNA level without ligand (log10) ((6R,S)-folinic acid [1]) | normalized RNA/DNA level with ligand (log10) ((6R,S)-folinic acid [2])
GUCCAA | 1.992 ± 0.011 | 2.01 ± 0.035
ACCUCG | 2.028 ± 0.0069 | 2.074 ± 0.0045
UCAAGG | 1.96 ± 0.023 | 2 ± 0.033
UGCCUA | 2.03 ± 0.023 | 2.03 ± 0.023
UAGCCC | 2.0516 ± 0.00055 | 2.03 ± 0.006
AGGUUG | 2.005 ± 0.013 | 2.04 ± 0.053
UUUAAU | 1.975 ± 0.0038 | 1.988 ± 0.014
UGCUUC | 2.04 ± 0.027 | 2.04 ± 0.043
ACCGAU | 1.973 ± 0.0074 | 1.99 ± 0.044
UUAUGG | 1.798 ± 0.008 | 1.97 ± 0.0093
UGCCCU | 2.061 ± 0.0087 | 2.06 ± 0.043
GCCUAA | 2.006 ± 0.019 | 2.022 ± 0.012
GCGCCG | 2.059 ± 0.0092 | 2.046 ± 0.0097
AUCUAU | 2.0163 ± 0.0016 | 2.03 ± 0.041
GUCGUC | 2.02 ± 0.03 | 2.02 ± 0.034
AGGAUC | 2.059 ± 0.012 | 2.014 ± 0.013
GUGUGG | 1.908 ± 0.0095 | 2.03 ± 0.048
CGUUUG | 2 ± 0.029 | 1.986 ± 0.0034
CGUUUA | 1.99 ± 0.03 | 2.01 ± 0.034
GGCGGC | 2.012 ± 0.018 | 2.014 ± 0.013
GUAGUU | 2.003 ± 0.0023 | 2.02 ± 0.021
ACACCC | 2.041 ± 0.0034 | 1.97 ± 0.045
CUCAUA | 1.99 ± 0.021 | 1.96 ± 0.055
UUAUCG | 1.885 ± 0.0047 | 1.97 ± 0.041

Variant | normalized RNA/DNA level without ligand (log10) ((6R,S)-folinic acid [1]) | normalized RNA/DNA level with ligand (log10) ((6R,S)-folinic acid [2])
UAAGGC | 1.98 ± 0.023 | 2.01 ± 0.043
CAAAGU | 1.983 ± 0.013 | 2.01 ± 0.025
CUUGAA | 1.958 ± 0.01 | 1.99 ± 0.049
GGGAAA | 1.99 ± 0.0091 | 2.02 ± 0.036
AGAAGA | 1.949 ± 0.0067 | 2.02 ± 0.025
GUCAAU | 1.975 ± 0.018 | 2.02 ± 0.045
CUCUAG | 2.001 ± 0.019 | 2.02 ± 0.083
GCCCAG | 2 ± 0.028 | 2 ± 0.059
GCAGAC | 1.98 ± 0.037 | 2.02 ± 0.022
GCAAUU | 2.039 ± 0.01 | 2.04 ± 0.042
UACAUC | 2.0657 ± 0.0019 | 2.04 ± 0.032
GCUUAU | 1.942 ± 0.015 | 2.003 ± 0.006
UCAGCU | 2.046 ± 0.011 | 2.032 ± 0.0099
CCACGC | 2.01 ± 0.022 | 2.01 ± 0.025
UCGCUU | 2.033 ± 0.019 | 2.01 ± 0.081
AGGGCU | 2.022 ± 0.0078 | 2.05 ± 0.024
AACUUC | 2.063 ± 0.0082 | 2.039 ± 0.014
GUGCAA | 1.975 ± 0.0071 | 1.999 ± 0.01
GGUAGA | 1.995 ± 0.01 | 2.01 ± 0.022
CGGGGG | 1.91 ± 0.034 | 2.05 ± 0.064
CUUGUA | 2.027 ± 0.018 | 2.036 ± 0.013
CAGUAG | 1.93 ± 0.023 | 1.99 ± 0.052
GUGUCU | 1.982 ± 0.0041 | 1.98 ± 0.045
UUUAUU | 1.988 ± 0.0096 | 2.03 ± 0.033

Variant | normalized RNA/DNA level without ligand (log10) ((6R,S)-folinic acid [1]) | normalized RNA/DNA level with ligand (log10) ((6R,S)-folinic acid [2])
GUGAUG | 1.908 ± 0.015 | 1.99 ± 0.035
GGAGUU | 2.011 ± 0.0026 | 2.05 ± 0.039
CUACAG | 1.977 ± 0.011 | 2.03 ± 0.029
CCGCAC | 1.997 ± 0.0034 | 1.99 ± 0.029
CCGCAG | 1.97 ± 0.004 | 1.99 ± 0.066
GCGGAU | 2.021 ± 0.0026 | 2.04 ± 0.042
UGGAUA | 1.93 ± 0.022 | 1.99 ± 0.031
UGGAUC | 2.039 ± 0.01 | 2.01 ± 0.032
AGCGCU | 2.027 ± 0.0049 | 2.01 ± 0.026
CGGACU | 2.043 ± 0.0042 | 2.01 ± 0.023
CUUAGU | 2.01 ± 0.0085 | 2.014 ± 0.0092
UUAAGC | 2.022 ± 0.0089 | 2.027 ± 0.016
CGGCGA | 2.103 ± 0.016 | 2.09 ± 0.026
ACUCCU | 2.075 ± 0.0094 | 2.08 ± 0.05
AGGUAA | 1.95 ± 0.024 | 1.98 ± 0.02
AUUAUA | 1.9581 ± 0.0013 | 1.97 ± 0.025
UCAAUA | 1.9534 ± 0.0012 | 1.98 ± 0.031
UGCUGU | 2.015 ± 0.0082 | 1.995 ± 0.0073
CUCACC | 2.06 ± 0.029 | 1.96 ± 0.048
UGUACA | 1.958 ± 0.018 | 2 ± 0.051
AAGCUG | 2.01 ± 0.0066 | 2.048 ± 0.0075
UGCGGU | 1.976 ± 0.014 | 2.03 ± 0.025
UAGCGA | 1.921 ± 0.018 | 2.035 ± 0.019
CAGAGC | 2.013 ± 0.01 | 2.01 ± 0.028

Variant | normalized RNA/DNA level without ligand (log10) ((6R,S)-folinic acid [1]) | normalized RNA/DNA level with ligand (log10) ((6R,S)-folinic acid [2])
UCUACA | 2.057 ± 0.0079 | 2.0488 ± 0.002
AUUCGC | 2.039 ± 0.0092 | 2.06 ± 0.041
UACGCG | 1.79 ± 0.03 | 1.98 ± 0.058
AUCCAC | 2.037 ± 0.013 | 2.02 ± 0.037
CUAAGC | 2.02 ± 0.026 | 2.024 ± 0.018
UAUAGU | 1.874 ± 0.014 | 1.97 ± 0.041
AGACUC | 2.038 ± 0.0045 | 2.05 ± 0.021
AGACUA | 1.977 ± 0.0092 | 1.98 ± 0.043
CCCGAG | 1.95 ± 0.0086 | 1.99 ± 0.022
GGCGUC | 2.058 ± 0.012 | 2.01 ± 0.047
UCUAAC | 2.013 ± 0.0071 | 2.031 ± 0.018
GCUAAG | 1.968 ± 0.003 | 2.024 ± 0.016
ACAGGA | 1.948 ± 0.011 | 2.03 ± 0.037
AGCCAU | 1.986 ± 0.013 | 1.99 ± 0.029
CAUGCC | 2.058 ± 0.0046 | 2.029 ± 0.014
CGAUCU | 2.062 ± 0.0057 | 2.06 ± 0.03
GUUUAC | 2.02 ± 0.028 | 2.016 ± 0.002
CCUCCU | 2.06 ± 0.036 | 2.037 ± 0.0023
UUUAGC | 1.998 ± 0.005 | 2 ± 0.044
UUGUGG | 1.888 ± 0.0042 | 2.06 ± 0.044
GUAAGU | 1.939 ± 0.0089 | 2.02 ± 0.06
ACUCGU | 2.028 ± 0.016 | 1.983 ± 0.016
UCAUAC | 2.029 ± 0.0064 | 1.988 ± 0.019
UGAGCC | 2.038 ± 0.0055 | 2.04 ± 0.041

Variant | normalized RNA/DNA level without ligand (log10) ((6R,S)-folinic acid [1]) | normalized RNA/DNA level with ligand (log10) ((6R,S)-folinic acid [2])
ACCACC | 2.087 ± 0.0062 | 2.06 ± 0.04
GUCAGA | 2.0258 ± 0.00039 | 2.027 ± 0.01
CGCCCG | 2.03 ± 0.029 | 2.031 ± 0.0094
CACUCA | 2.013 ± 0.0028 | 2.03 ± 0.025
CCUUUC | 2.062 ± 0.0044 | 2.01 ± 0.053
CACAGU | 1.999 ± 0.017 | 2 ± 0.077
CACAAC | 2.004 ± 0.016 | 1.99 ± 0.05
CGACAG | 1.95 ± 0.031 | 1.972 ± 0.018
UACGUC | 2.07 ± 0.019 | 2.06 ± 0.066
AGACAA | 2.004 ± 0.0066 | 2.01 ± 0.03
ACCCCC | 2.04 ± 0.016 | 2.002 ± 0.015
AUCGAA | 1.974 ± 0.0042 | 2 ± 0.02
AAUGUU | 1.972 ± 0.0068 | 1.993 ± 0.0074
ACGCCC | 2.051 ± 0.0035 | 2.03 ± 0.059
ACAUUU | 2 ± 0.024 | 2.019 ± 0.018
UCACAC | 2.048 ± 0.015 | 2.023 ± 0.016
UGCGCG | 1.81 ± 0.046 | 1.99 ± 0.056
CUUGGU | 2.01 ± 0.021 | 2.01 ± 0.029
AGUCAU | 1.998 ± 0.0079 | 2.0062 ± 1.5e-05
CCAAAU | 1.963 ± 0.013 | 2 ± 0.035

Reference: the supplement of paper PMC6757056
